{
  "source": "patent US20220324938A1",
  "about": "(published 2022)",
  "binders": {"B1": {"name": "B*18:01/MART125-33 TCR (TCR, V domains shown)", "Valpha": "GQNIDQPTEMTATEGAIVQINCTYQTSGFNGLFWYQQHAGEAPTFLSYNVLDGLEEKGRFSSFLSRSKGYSYLLLKELQMKDSASYLCAVYGGATNKLIFGTGTLLAVQP", "Vbeta": "NAGVMQNPRHLVRRRGQEARLRCSPMKGHSHVYWYRQLPEEGLKFMVYLQKENIIDESGMPKERFSAEFPKEGPSILRIQQVVRGDSAAYFCASSPHAGGVDEKLFFGSGTQLSVL"}, "B2": {"name": "B*18:01/MAGE-A3167-176 TCR (TCR, V domains shown)", "Valpha": "AQKVTQAQTEISVVEKEDVTLDCVYETRDTTYYLFWYKQPPSGELVFLIRRNSFDEQNEISGRYSWNFQKSTSSFNFTITASQVVDSAVYFCALEVRSSASKIIFGSGTRLSIRP", "Vbeta": "GAVVSQHPSWVICKSGTSVKIECRSLDFQATTMFWYRQFPKQSLMLMATSNEGSKATYEQGVEKDKFLINHASLTLSTLTVTSAHPEDSSFYICSANPRTTLYEQYFGPGTRLTVT"}, "B3": {"name": "A*02:01/SSX241-49 TCR (TCR, V domains shown)", "Valpha": "KQEVTQIPAALSVPEGENLVLNCSFTDSAIYNLQWFRQDPGKGLTSLLLIQSSQREQTSGRLNASLDKSSGRSTLYIAASQPGDSATYLCAVEPMEYGNKLVFGAGTILRVKS", "Vbeta": "DGGITQSPKYLFRKEGQNVTLSCEQNLNHDAMYWYRQDPGQGLRLIYYSQIVNDFQKGDIAEGYSVSREKKESFPLTVTSAQKNPTAFYLCASSALFSGANVLTFGAGSRLTVL"}, "B4": {"name": "B*07:02/MAGE-A1289-297 TCR (TCR, V domains shown)", "Valpha": "AQKVTQAQTEISVVEKEDVTLDCVYETRDTTYYLFWYKQPPSGELVFLIRRNSFDEQNEISGRYSWNFQKSTSSFNFTITASQVVDSAVYFCALSESYSGAGSYQLTFGKGTKLSVIP", "Vbeta": "DTGVSQNPRHKITKRGQNVTFRCDPISEHNRLYWYRQTLGQGPEFLTYFQNEAQLEKSRLLSDRFSAERPKGSFSTLEIQRTEQGDSAMYLCASSLASGSNQPQHFGDGTRLSIL"}},
  "test_in_all_cases": "multimer staining",
  "key": {"[1]": {"molecular_target": "T1, MART1 peptide on HLA-B*18:01 (human)", "T1 peptide": "EEAAGIGIL"}, "[2]": {"molecular_target": "T2, MAGE-A3 peptide on HLA-B*18:01 (human)", "T2 peptide": "MEVDPIGHLY"}, "[3]": {"molecular_target": "T3, SSX2 peptide on HLA-A*02:01 (human)", "T3 peptide": "KASEKIFYV"}, "[4]": {"molecular_target": "T4, MAGE-A1 peptide on HLA-B*07:02 (human)", "T4 peptide": "RVRFFFPSL"}},
  "data": [
    {"binder": "B1", "values": [
      {"measurement": "binding result", "setting": "[1]", "result": "recognises"}
    ]},
    {"binder": "B2", "values": [
      {"measurement": "binding result", "setting": "[2]", "result": "recognises"}
    ]},
    {"binder": "B3", "values": [
      {"measurement": "binding result", "setting": "[3]", "result": "recognises"}
    ]},
    {"binder": "B4", "values": [
      {"measurement": "binding result", "setting": "[4]", "result": "recognises"}
    ]}
  ]
}
